The chains are these.
B1: NanK (N-acetylmannosamine kinase) (Escherichia coli K-12) (protein)
chain: MTTLAIDIGGTKLAAALIGADGQIRDRRELPTPASQTPEALRDALSALVSPLQAHAQRVAIASTGIIRDGSLLALNPHNLGGLLHFPLVKTLEQLTNLPTIAINDAQAAAWAEFQALDGDITDMVFITVSTGVGGGVVSGCKLLTGPGGLAGHIGHTLADPHGPVCGCGRTGCVEAIASGRGIAAAAQGELAGADAKTIFTRAGQGDEQAQQLIHRSARTLARLIADIKATTDCQCVVVGGSVGLAEGYLALVETYLAQEPAAFHVDLLAAHYRHDAGLLGAALLAQGEKL
B2: NanK (N-acetylmannosamine kinase) (Escherichia coli K-12; L84P) (protein)
chain: B1 chain with L84P
B3: NanK (N-acetylmannosamine kinase) (Escherichia coli K-12; L84R) (protein)
chain: B1 chain with L84R

Where a chain is given by its changes, count along the chain named. Names and notes keep the numbering of the source.

Substrate in this data set: Nc1ncnc2c1ncn2[C@@H]1O[C@H](COP(=O)(O)OP(=O)(O)OP(=O)(O)O)[C@@H](O)[C@H]1O
The data set is described as follows: purified protein. Particulars: co-substrate N-acetylmannosamine.
One may read the kcat as the maximal rate divided by the concentration of active sites. Turning to B1, the Km entry is reported as “(1.4 ± 0.2)×10^−4 M” and the catalytic constant (kcat) came out at 29 ± 0.5 s⁻¹.

Consider B2, for which the Km result is “(1.4 ± 0.3)×10^−4 M” and the kcat was determined as 13 ± 0.2 s⁻¹.

With B3, the Km result is “(8.3 ± 1.4)×10^−5 M” and the kcat turned out to be 17 ± 0.3 s⁻¹.

For the origin of these results see PMC10519446.
